Assay results taken from PMC5722929.

Target: AMPA glutamate receptor subunit GluA1 (mouse (endogenous in primary hippocampal neurons)) (UniProt P23818)
Experiment: co-IP; endogenous proteins in lysates of hippocampal neurons treated with vehicle (CTR) or IPA (insulin 20 nM + palmitic acid 0.2 mM); IP buffer KCl 50 mM, Tris-HCl 50 mM pH 8, EDTA 10 mM, 1% Nonidet P-40; specific antibody or IgG (negative control) with protein G-sepharose 4B, 6 h at 4 °C; six washes; immunoblot

Sequence of UniProt P23818 (P23818 19-907): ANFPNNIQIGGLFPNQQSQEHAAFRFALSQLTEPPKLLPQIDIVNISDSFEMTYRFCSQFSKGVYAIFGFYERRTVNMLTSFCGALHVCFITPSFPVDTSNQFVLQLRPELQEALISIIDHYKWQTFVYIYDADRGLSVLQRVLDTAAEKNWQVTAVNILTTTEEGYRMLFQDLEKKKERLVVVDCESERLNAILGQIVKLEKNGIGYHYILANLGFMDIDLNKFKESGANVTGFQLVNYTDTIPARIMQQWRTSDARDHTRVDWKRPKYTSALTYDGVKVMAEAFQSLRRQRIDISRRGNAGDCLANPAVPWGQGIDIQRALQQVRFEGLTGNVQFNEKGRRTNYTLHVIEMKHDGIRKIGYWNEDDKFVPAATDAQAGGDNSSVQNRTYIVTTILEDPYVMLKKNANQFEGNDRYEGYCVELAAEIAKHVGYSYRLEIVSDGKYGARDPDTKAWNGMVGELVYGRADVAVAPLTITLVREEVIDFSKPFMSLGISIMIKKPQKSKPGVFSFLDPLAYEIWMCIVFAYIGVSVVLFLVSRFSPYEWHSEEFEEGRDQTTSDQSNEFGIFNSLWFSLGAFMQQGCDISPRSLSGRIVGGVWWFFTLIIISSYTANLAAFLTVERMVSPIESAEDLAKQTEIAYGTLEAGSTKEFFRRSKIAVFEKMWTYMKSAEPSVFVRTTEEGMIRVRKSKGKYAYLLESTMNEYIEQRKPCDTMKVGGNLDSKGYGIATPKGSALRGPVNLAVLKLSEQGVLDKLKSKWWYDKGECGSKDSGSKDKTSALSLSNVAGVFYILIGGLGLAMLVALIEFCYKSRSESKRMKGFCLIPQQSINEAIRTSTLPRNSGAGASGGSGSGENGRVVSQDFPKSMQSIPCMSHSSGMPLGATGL

- change of the co-precipitated amount after IPA against vehicle control: -74%
Substance: actin (from UniProt P60710 1-375) (natural protein)
